# Data from publication PMC3777911 (PLoS ONE, 2013).
# T1: His-Sec31A (human, UniProt O94979 1-1220)
# T1 construct: human Sec31A; also called wt Sec31A; source: co-expressed with HA-Sec13 in ES-SF9 cells (Bac-to-Bac baculovirus)
# T1 sequence (looked up): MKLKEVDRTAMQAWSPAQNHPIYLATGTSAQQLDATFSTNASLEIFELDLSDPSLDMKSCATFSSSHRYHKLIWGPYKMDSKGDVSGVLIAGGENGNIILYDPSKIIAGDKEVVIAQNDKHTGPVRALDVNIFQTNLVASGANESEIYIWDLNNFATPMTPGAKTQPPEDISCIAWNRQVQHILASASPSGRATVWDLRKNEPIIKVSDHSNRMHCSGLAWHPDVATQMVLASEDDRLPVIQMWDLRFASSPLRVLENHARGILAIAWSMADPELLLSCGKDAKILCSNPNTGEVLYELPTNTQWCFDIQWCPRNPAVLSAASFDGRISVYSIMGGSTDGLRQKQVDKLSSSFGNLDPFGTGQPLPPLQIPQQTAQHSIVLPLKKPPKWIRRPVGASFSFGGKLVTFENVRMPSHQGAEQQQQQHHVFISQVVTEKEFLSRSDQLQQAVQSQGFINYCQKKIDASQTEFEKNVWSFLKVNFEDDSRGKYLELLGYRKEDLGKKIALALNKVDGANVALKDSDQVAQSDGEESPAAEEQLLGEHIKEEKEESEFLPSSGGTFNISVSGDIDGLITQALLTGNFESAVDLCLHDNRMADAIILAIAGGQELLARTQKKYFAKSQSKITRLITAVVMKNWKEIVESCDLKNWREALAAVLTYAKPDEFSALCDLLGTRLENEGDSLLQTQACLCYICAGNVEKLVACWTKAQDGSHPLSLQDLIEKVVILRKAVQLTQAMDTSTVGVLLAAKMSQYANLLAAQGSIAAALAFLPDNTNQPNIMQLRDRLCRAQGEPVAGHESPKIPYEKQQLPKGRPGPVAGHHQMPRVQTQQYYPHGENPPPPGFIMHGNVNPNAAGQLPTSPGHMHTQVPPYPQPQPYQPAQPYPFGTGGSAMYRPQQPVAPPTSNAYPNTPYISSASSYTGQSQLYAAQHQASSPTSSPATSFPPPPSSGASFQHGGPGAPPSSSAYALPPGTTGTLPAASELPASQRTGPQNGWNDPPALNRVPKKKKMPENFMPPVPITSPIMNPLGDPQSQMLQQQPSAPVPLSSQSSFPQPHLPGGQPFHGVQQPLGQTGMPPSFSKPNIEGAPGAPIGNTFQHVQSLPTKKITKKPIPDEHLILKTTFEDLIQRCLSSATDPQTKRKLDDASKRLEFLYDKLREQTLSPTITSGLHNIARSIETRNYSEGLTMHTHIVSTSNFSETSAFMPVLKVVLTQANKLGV
# What was measured:
# [1] = target: T2, HA-Sec13/His-Sec31A complex (outer COPII coat), wild type ( | human, UniProt P55735 1-322; O94979 1-1220); assay: pull-down; His-tagged Sec31A (Sec13/Sec31A) immobilised on Nickel beads, recombinant ALG-2 versions added, in the presence of Ca2+; eluates on SDS-PAGE, SyproRed; ratios from fluorescence intensity; conditions: both partners purified
# T2 construct: Sec13, mammalian COPII outer coat protein; human Sec31A; also called Sec13/31A; Sec13/Sec31A (wt); source: co-expressed in ES-SF9 cells (Bac-to-Bac baculovirus), purified (Ni-NTA)
# His-Sec31A = target: T1, His-Sec31A; assay: co-purification (Ni-NTA affinity chromatography); the two chains co-expressed in ES-SF9 cells; complex purified on Ni-NTA through the His tag of Sec31A or Sec24; purified Sec13/Sec31A collected again on Ni beads, SyproRed; conditions: partners not purified
Binder,stoichiometry N [1],stoichiometry N (His-Sec31A)
"ALG-2 (product of the apoptosis linked gene-2), recombinant wild type (natural protein, UniProt P12815 1-191, looked up, also called wt ALG-2; rALG-2; source: recombinant, purified as previously described [16]) MAAYSYRPGPGGGPGPAAGAALPDQSFLWNVFQRVDKDRSGVISDNELQQALSNGTWTPFNPVTVRSIISMFDRENKAGVNFSEFTGVWKYITDWQNVFRTYDRDNSGMIDKNELKQALSGFGYRLSDQFHDILIRKFDRQGRGQIAFDDFIQGCIVLQRLTDIFRRYDTDQDGWIQVSYEQYLSMVFSIV",~2 ALG-2 per Sec31A (molar ratio),
"HA-Sec13 (natural protein, UniProt P55735 1-322, looked up, Sec13, mammalian COPII outer coat protein; source: co-expressed with His-Sec31A or His-Sec31ADelABD in ES-SF9 cells (Bac-to-Bac baculovirus)) MVSVINTVDTSHEDMIHDAQMDYYGTRLATCSSDRSVKIFDVRNGGQILIADLRGHEGPVWQVAWAHPMYGNILASCSYDRKVIIWREENGTWEKSHEHAGHDSSVNSVCWAPHDYGLILACGSSDGAISLLTYTGEGQWEVKKINNAHTIGCNAVSWAPAVVPGSLIDHPSGQKPNYIKRFASGGCDNLIKLWKEEEDGQWKEEQKLEAHSDWVRDVAWAPSIGLPTSTIASCSQDGRVFIWTCDDASSNTWSPKLLHKFNDVVWHVSWSITANILAVSGGDNKVTLWKESVDGQWVCISDVNKGQGSVSASVTEGQQNEQ",,~1 Sec13 per Sec31A (molar ratio)
